According to patent publication US20240035010, “COMPOSITIONS COMPRISING A VARIANT POLYPEPTIDE AND USES THEREOF” (Arbor Biotechnologies, Inc., published 2024):

How the values were obtained:
Experiment in all cases: cell_activity; PAM 5'-ATTG-3'
Settings in all cases: tags: pcDNA3.1 expression
[1] = molecular target: T1, variant nuclease K35G combination (P14R, D32R, I61R, E311R, K35G)
T1 chain: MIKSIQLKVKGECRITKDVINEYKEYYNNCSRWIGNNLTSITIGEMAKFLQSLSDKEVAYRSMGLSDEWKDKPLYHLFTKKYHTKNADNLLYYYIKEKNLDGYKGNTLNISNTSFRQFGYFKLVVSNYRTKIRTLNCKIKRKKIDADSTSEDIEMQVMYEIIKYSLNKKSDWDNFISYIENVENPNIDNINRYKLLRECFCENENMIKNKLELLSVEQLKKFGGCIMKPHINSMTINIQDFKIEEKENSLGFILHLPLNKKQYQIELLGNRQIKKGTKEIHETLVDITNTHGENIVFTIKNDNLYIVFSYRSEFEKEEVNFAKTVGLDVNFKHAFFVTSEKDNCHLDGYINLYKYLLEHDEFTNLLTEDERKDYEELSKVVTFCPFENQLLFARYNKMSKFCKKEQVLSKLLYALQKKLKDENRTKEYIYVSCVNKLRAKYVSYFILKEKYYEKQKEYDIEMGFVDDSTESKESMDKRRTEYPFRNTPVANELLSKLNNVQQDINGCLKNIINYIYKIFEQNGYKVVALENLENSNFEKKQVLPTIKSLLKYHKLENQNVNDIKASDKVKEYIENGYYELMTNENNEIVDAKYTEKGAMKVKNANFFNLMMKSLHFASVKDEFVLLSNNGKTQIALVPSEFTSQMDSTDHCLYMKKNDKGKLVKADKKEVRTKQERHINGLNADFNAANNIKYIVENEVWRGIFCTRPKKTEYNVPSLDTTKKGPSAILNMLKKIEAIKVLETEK

[2] = molecular target: T2, variant nuclease E736G combination (P14R, D32R, I61R, E311R, E736G)
T2 chain: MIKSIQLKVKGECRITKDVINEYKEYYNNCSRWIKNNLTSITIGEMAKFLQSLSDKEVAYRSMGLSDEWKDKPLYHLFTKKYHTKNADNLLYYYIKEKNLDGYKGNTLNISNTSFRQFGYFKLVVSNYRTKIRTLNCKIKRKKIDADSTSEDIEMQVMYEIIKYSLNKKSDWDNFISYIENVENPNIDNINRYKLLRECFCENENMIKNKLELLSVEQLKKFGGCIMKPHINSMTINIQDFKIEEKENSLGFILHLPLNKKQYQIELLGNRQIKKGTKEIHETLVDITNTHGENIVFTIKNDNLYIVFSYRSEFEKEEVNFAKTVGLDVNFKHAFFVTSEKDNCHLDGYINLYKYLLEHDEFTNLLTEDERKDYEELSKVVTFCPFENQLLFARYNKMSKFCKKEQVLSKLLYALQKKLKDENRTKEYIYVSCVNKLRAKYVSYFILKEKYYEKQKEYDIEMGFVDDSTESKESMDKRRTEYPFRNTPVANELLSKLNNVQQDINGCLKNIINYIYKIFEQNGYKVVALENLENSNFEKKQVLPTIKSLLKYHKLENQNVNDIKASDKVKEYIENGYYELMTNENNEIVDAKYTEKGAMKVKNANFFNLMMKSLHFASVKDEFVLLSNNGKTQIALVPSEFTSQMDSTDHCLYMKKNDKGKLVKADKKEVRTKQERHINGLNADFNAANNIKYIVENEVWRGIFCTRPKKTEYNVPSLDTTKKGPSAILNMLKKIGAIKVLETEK

[3] = molecular target: T3, variant nuclease 7 substitutions D590G/E154G/E736G (P14R, D32R, I61R, E311R, D590G, E154G, E736G)
T3 chain: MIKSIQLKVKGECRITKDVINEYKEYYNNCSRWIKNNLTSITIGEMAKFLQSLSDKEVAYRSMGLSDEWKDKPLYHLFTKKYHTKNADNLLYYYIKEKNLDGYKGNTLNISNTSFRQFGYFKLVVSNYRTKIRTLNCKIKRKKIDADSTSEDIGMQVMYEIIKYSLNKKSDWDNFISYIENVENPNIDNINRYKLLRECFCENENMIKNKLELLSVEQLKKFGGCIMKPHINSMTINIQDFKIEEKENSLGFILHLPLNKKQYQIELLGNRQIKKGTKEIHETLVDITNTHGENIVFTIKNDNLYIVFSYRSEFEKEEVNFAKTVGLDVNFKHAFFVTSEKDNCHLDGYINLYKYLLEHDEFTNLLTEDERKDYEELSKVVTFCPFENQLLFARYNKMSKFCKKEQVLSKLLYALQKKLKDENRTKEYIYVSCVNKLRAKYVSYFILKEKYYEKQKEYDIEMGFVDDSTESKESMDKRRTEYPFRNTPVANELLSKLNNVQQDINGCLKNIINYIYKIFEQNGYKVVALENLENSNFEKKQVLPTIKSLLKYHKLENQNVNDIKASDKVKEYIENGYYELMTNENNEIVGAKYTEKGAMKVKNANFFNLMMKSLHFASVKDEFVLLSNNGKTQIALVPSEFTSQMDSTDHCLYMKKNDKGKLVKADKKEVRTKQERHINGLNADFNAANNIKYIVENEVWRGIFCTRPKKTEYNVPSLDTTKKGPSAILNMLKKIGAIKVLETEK

B1: EMX1 crRNA ; EMX1 target (ssRNA ; dsDNA)
RNA: CUUGUUGUAUAUGUCCUUUUAUAGGUAUUAAACAACCCGCCGCUUCCUGAGCCAUC
DNA 1: CCGCCGCTTCCTGAGCCATC
DNA 2: GATGGCTCAGGAAGCGGCGG
indel editing activity [1]: 6.93 fold of WT
indel editing activity [2]: 10.1 fold of WT
indel editing activity [3]: 10.7 fold of WT
